Measured values: article PMC4931990

Biological target: KDM2B/FBXL10 (UniProt Q8NHM5)
Experiment: co-IP, western blot
Details: reference: wild type, EGF-treated; sites S374

c-Fos (from UniProt P01100) S374A, EGF-treated
binding against the reference: stronger
